{"source": "the Immune Epitope Database (IEDB)", "key": {"HLA-B*18:01 [1]": {"target": "HLA-B*18:01", "assay": "IEDB peptide-MHC binding, purified MHC/competitive/radioactivity; filed as Kd, often an IC50 or EC50 that approximates it; ≥ and ≤ were set here for values at or beyond the usual limits of such assays"}, "HLA-B*40:01": {"target": "HLA-B*40:01", "assay": "IEDB peptide-MHC binding, purified MHC/competitive/radioactivity; filed as Kd, often an IC50 or EC50 that approximates it; ≥ and ≤ were set here for values at or beyond the usual limits of such assays"}, "HLA-B*44:03": {"target": "HLA-B*44:03", "assay": "IEDB peptide-MHC binding, purified MHC/competitive/radioactivity; filed as Kd, often an IC50 or EC50 that approximates it; ≥ and ≤ were set here for values at or beyond the usual limits of such assays"}, "HLA-B*45:01": {"target": "HLA-B*45:01", "assay": "IEDB peptide-MHC binding, purified MHC/competitive/radioactivity; filed as Kd, often an IC50 or EC50 that approximates it; ≥ and ≤ were set here for values at or beyond the usual limits of such assays"}, "HLA-B*40:02": {"target": "HLA-B*40:02", "assay": "IEDB peptide-MHC binding, purified MHC/competitive/radioactivity; filed as Kd, often an IC50 or EC50 that approximates it; ≥ and ≤ were set here for values at or beyond the usual limits of such assays"}, "HLA-B*44:02": {"target": "HLA-B*44:02", "assay": "IEDB peptide-MHC binding, purified MHC/competitive/radioactivity; filed as Kd, often an IC50 or EC50 that approximates it; ≥ and ≤ were set here for values at or beyond the usual limits of such assays"}, "HLA-A*03:01": {"target": "HLA-A*03:01", "assay": "IEDB peptide-MHC binding, purified MHC/direct/fluorescence; filed as Kd, often an IC50 or EC50 that approximates it; ≥ and ≤ were set here for values at or beyond the usual limits of such assays", "settings": "source organism: Reston ebolavirus - Reston"}, "HLA-B*39:01": {"target": "HLA-B*39:01", "assay": "IEDB peptide-MHC binding, purified MHC/competitive/fluorescence; filed as Kd, often an IC50 or EC50 that approximates it; ≥ and ≤ were set here for values at or beyond the usual limits of such assays", "settings": "source organism: Reston ebolavirus"}, "HLA-B*15:01": {"target": "HLA-B*15:01", "assay": "IEDB peptide-MHC binding, purified MHC/competitive/fluorescence; filed as Kd, often an IC50 or EC50 that approximates it; ≥ and ≤ were set here for values at or beyond the usual limits of such assays", "settings": "source organism: Reston ebolavirus"}, "HLA-B*18:01 [2]": {"target": "HLA-B*18:01", "assay": "IEDB peptide-MHC binding, purified MHC/competitive/fluorescence; filed as Kd, often an IC50 or EC50 that approximates it; ≥ and ≤ were set here for values at or beyond the usual limits of such assays", "settings": "source organism: Reston ebolavirus"}, "HLA-A*26:01": {"target": "HLA-A*26:01", "assay": "IEDB peptide-MHC binding, purified MHC/competitive/fluorescence; filed as Kd, often an IC50 or EC50 that approximates it; ≥ and ≤ were set here for values at or beyond the usual limits of such assays", "settings": "source organism: Reston ebolavirus"}, "HLA-A*02:01": {"target": "HLA-A*02:01", "assay": "IEDB peptide-MHC binding, purified MHC/competitive/fluorescence; filed as Kd, often an IC50 or EC50 that approximates it; ≥ and ≤ were set here for values at or beyond the usual limits of such assays", "settings": "source organism: Reston ebolavirus"}, "HLA-B*27:03": {"target": "HLA-B*27:03", "assay": "IEDB peptide-MHC binding, purified MHC/competitive/fluorescence; filed as Kd, often an IC50 or EC50 that approximates it; ≥ and ≤ were set here for values at or beyond the usual limits of such assays", "settings": "source organism: Reston ebolavirus"}, "HLA-B*51:01": {"target": "HLA-B*51:01", "assay": "IEDB peptide-MHC binding, purified MHC/competitive/fluorescence; filed as Kd, often an IC50 or EC50 that approximates it; ≥ and ≤ were set here for values at or beyond the usual limits of such assays", "settings": "source organism: Reston ebolavirus"}, "HLA-A*69:01": {"target": "HLA-A*69:01", "assay": "IEDB peptide-MHC binding, purified MHC/competitive/fluorescence; filed as Kd, often an IC50 or EC50 that approximates it; ≥ and ≤ were set here for values at or beyond the usual limits of such assays", "settings": "source organism: Reston ebolavirus"}, "HLA-B*46:01": {"target": "HLA-B*46:01", "assay": "IEDB peptide-MHC binding, purified MHC/competitive/fluorescence; filed as Kd, often an IC50 or EC50 that approximates it; ≥ and ≤ were set here for values at or beyond the usual limits of such assays", "settings": "source organism: Reston ebolavirus"}, "HLA-B*57:01": {"target": "HLA-B*57:01", "assay": "IEDB peptide-MHC binding, purified MHC/competitive/fluorescence; filed as Kd, often an IC50 or EC50 that approximates it; ≥ and ≤ were set here for values at or beyond the usual limits of such assays", "settings": "source organism: Reston ebolavirus"}, "HLA-B*15:03": {"target": "HLA-B*15:03", "assay": "IEDB peptide-MHC binding, purified MHC/competitive/radioactivity; filed as Kd, often an IC50 or EC50 that approximates it; ≥ and ≤ were set here for values at or beyond the usual limits of such assays", "settings": "source organism: Vaccinia virus WR"}, "HLA-B*48:01": {"target": "HLA-B*48:01", "assay": "IEDB peptide-MHC binding, purified MHC/direct/fluorescence; filed as Kd, often an IC50 or EC50 that approximates it; ≥ and ≤ were set here for values at or beyond the usual limits of such assays", "settings": "source organism: Giardia lamblia ATCC 50803"}, "[3]": {"settings": "source organism: Mammarenavirus guanaritoense"}, "[4]": {"settings": "source organism: SARS coronavirus Tor2"}, "[5]": {"settings": "source organism: Mammarenavirus machupoense"}, "[6]": {"settings": "source organism: Mammarenavirus lassaense"}}, "data": [{"sequence": "ADSLDFTQV", "values": [{"measurement": "Kd", "setting": "HLA-B*18:01 [1]; [3]", "value": "≥ 66.5", "unit": "µM"}, {"measurement": "Kd", "setting": "HLA-B*40:01; [3]", "value": "≥ 64.9", "unit": "µM"}, {"measurement": "Kd", "setting": "HLA-B*44:03; [3]", "value": "≥ 33.3", "unit": "µM"}, {"measurement": "Kd", "setting": "HLA-B*45:01; [3]", "value": 6.12, "unit": "µM"}, {"measurement": "Kd", "setting": "HLA-B*40:02; [3]", "value": 5.85, "unit": "µM"}, {"measurement": "Kd", "setting": "HLA-B*44:02; [3]", "value": 12.6, "unit": "µM"}]}, {"sequence": "AEIRASANLA", "values": [{"measurement": "Kd", "setting": "HLA-B*18:01 [1]; [4]", "value": 8.13, "unit": "µM"}, {"measurement": "Kd", "setting": "HLA-B*40:01; [4]", "value": 0.202, "unit": "µM"}, {"measurement": "Kd", "setting": "HLA-B*44:03; [4]", "value": 0.0986, "unit": "µM"}, {"measurement": "Kd", "setting": "HLA-B*45:01; [4]", "value": 0.00463, "unit": "µM"}, {"measurement": "Kd", "setting": "HLA-B*40:02; [4]", "value": 2.25, "unit": "µM"}, {"measurement": "Kd", "setting": "HLA-B*44:02; [4]", "value": 0.0801, "unit": "µM"}]}, {"sequence": "ALYEENALK", "values": [{"measurement": "Kd", "setting": "HLA-A*03:01", "value": 1.84, "unit": "µM"}, {"measurement": "Kd", "setting": "HLA-B*39:01", "value": "≥ 20", "unit": "µM"}, {"measurement": "Kd", "setting": "HLA-B*15:01", "value": "≥ 20", "unit": "µM"}, {"measurement": "Kd", "setting": "HLA-B*18:01 [2]", "value": "≥ 20", "unit": "µM"}, {"measurement": "Kd", "setting": "HLA-A*26:01", "value": "≥ 20", "unit": "µM"}, {"measurement": "Kd", "setting": "HLA-A*02:01", "value": "≥ 20", "unit": "µM"}, {"measurement": "Kd", "setting": "HLA-B*27:03", "value": "≥ 20", "unit": "µM"}, {"measurement": "Kd", "setting": "HLA-B*51:01", "value": "≥ 20", "unit": "µM"}, {"measurement": "Kd", "setting": "HLA-A*69:01", "value": "≥ 20", "unit": "µM"}, {"measurement": "Kd", "setting": "HLA-B*46:01", "value": "≥ 20", "unit": "µM"}, {"measurement": "Kd", "setting": "HLA-B*57:01", "value": "≥ 20", "unit": "µM"}]}, {"sequence": "EDIAMGYVV", "values": [{"measurement": "Kd", "setting": "HLA-B*18:01 [1]; [5]", "value": 1.5, "unit": "µM"}, {"measurement": "Kd", "setting": "HLA-B*40:01; [5]", "value": "≥ 45.3", "unit": "µM"}, {"measurement": "Kd", "setting": "HLA-B*44:03; [5]", "value": "≥ 38.4", "unit": "µM"}, {"measurement": "Kd", "setting": "HLA-B*45:01; [5]", "value": 2.26, "unit": "µM"}, {"measurement": "Kd", "setting": "HLA-B*40:02; [5]", "value": 0.0698, "unit": "µM"}, {"measurement": "Kd", "setting": "HLA-B*44:02; [5]", "value": 10.3, "unit": "µM"}]}, {"sequence": "FELTSMKYF", "values": [{"measurement": "Kd", "setting": "HLA-B*18:01 [1]; [4]", "value": 3.72, "unit": "µM"}, {"measurement": "Kd", "setting": "HLA-B*40:01; [4]", "value": 10.7, "unit": "µM"}, {"measurement": "Kd", "setting": "HLA-B*44:03; [4]", "value": 0.161, "unit": "µM"}, {"measurement": "Kd", "setting": "HLA-B*45:01; [4]", "value": "≥ 33.9", "unit": "µM"}, {"measurement": "Kd", "setting": "HLA-B*40:02; [4]", "value": 2.32, "unit": "µM"}, {"measurement": "Kd", "setting": "HLA-B*44:02; [4]", "value": 0.0927, "unit": "µM"}]}, {"sequence": "FISRNKNIF", "values": [{"measurement": "Kd", "setting": "HLA-B*15:03", "value": 4.03, "unit": "µM"}]}, {"sequence": "FKVTTRRSI", "values": [{"measurement": "Kd", "setting": "HLA-B*15:03", "value": 0.00457, "unit": "µM"}]}, {"sequence": "HMPAARPEL", "values": [{"measurement": "Kd", "setting": "HLA-B*48:01", "value": 0.593, "unit": "µM"}]}, {"sequence": "IEEIMNIVLI", "values": [{"measurement": "Kd", "setting": "HLA-B*18:01 [1]; [6]", "value": 3.15, "unit": "µM"}, {"measurement": "Kd", "setting": "HLA-B*40:01; [6]", "value": 1.81, "unit": "µM"}, {"measurement": "Kd", "setting": "HLA-B*44:03; [6]", "value": 0.445, "unit": "µM"}, {"measurement": "Kd", "setting": "HLA-B*45:01; [6]", "value": 1.3, "unit": "µM"}, {"measurement": "Kd", "setting": "HLA-B*40:02; [6]", "value": 0.0984, "unit": "µM"}, {"measurement": "Kd", "setting": "HLA-B*44:02; [6]", "value": 0.151, "unit": "µM"}]}]}
